Measured values taken from publication PMC11335211, “In vivo photocontrol of orexin receptors with a nanomolar light-regulated analogue of orexin-B” (Cellular and Molecular Life Sciences: CMLS, 2024).

How the values were obtained:
OX1 receptor = details: membrane-based binding assay; ref Langmead et al., 5 (SI); cited from earlier work
From the text: Although the lack of binding with all three forms of OX-B - including the native ligand control - came unexpected, similar findings had already been observed for the OX1 receptor.

human OX1 = target: T1, human OX1 (Homo sapiens, UniProt O43613); experiment: FLIPR Tetra calcium mobilization assay, CHO-K1 cells; format: cell-based; details: CHO-K1 cells stably expressing hOX1; 0.3 nM to 1 µM; two independent experiments in triplicates
T1 construct: expressed in transfected cells
T1 sequence (O43613 1-425): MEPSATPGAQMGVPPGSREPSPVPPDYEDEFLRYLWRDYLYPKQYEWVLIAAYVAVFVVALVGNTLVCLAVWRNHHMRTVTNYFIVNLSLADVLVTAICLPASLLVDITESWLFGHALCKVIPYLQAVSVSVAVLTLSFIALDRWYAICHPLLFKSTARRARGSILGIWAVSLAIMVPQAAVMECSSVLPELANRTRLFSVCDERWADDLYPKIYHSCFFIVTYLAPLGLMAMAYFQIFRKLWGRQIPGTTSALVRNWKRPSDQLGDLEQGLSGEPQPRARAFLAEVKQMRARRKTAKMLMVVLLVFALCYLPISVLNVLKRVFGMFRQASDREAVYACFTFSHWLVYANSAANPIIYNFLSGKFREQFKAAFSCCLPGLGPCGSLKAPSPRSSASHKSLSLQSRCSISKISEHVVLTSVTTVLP
Experimental: (§1) Samples of trans phOX were kept in the dark both prior to and during the whole duration of the experiment to avoid undesired photoconversion caused by environmental light. Unless differently stated, data for cis phOX were obtained by pre-illuminating the samples for 10 min with 365 nm UV light.
(§2) PFSK-1 cells were cultured in RPMI 1640 supplemented with 10% fetal bovine serum (FBS), 100 units/ml penicillin, and 100 µg/ml streptomycin. Chinese hamster ovary-K1 (CHO-K1) cells stably transfected to express human OX1 were cultured in Dulbecco’s Modified Eagle’s Medium/Nutrient Mixture F-12 Ham (DMEM/F12 1:1) medium supplemented with 10% FBS and 600 µg/ml G418. All cell lines were grown at 37 °C in 5% CO2.
(§3) Cells were plated at 50,000 cells/well in 96-well black-wall plates with poly-D-lysine-coated clear bottoms and grown overnight at 37 °C in 5% CO2. […] Calcium-mediated changes in fluorescence were monitored in a Fluorometric Imaging Plate Reader (FLIPR) Tetra instrument (Molecular Devices, USA). Fluorescence intensity was measured for 12 s to establish baseline fluorescence before addition of the test compound (20 µL/well) and further readings for a total of 155 s (excitation at 470–495 nm, detection at 515–575 nm). […]
(§4) Raw data from the FLIPR Tetra was exported as the difference between maximum and minimum fluorescence observed for each well. […] Agonist potencies (EC50) are expressed as means + SD.

[1] = parameters: method as in 2 sources, one per row (each row's own in cited_ref): ref 75–77 = [75]; PMID 10087007; 75. Kastin AJ Akerstrom V Orexin A but not orexin B rapidly enters brain from blood by simple diffusion J Pharmacol Exp Ther 1999 289 219 223 10087007 || [76]; PMID 12626669; doi:10.1113/jphysiol.2002.038729; 76. John J Wu M-F Kodama T Siegel JM Intravenously administered hypocretin-1 alters brain amino acid release: an in vivo microdialysis study in rats J Physiol 2003 548 557 562 10.1113/jphysiol.2002.03 || [77]; PMID 14746374; doi:10.1093/sleep/26.8.953; 77. Fujiki N Yoshida Y Ripley B Mignot E Nishino S Effects of IV and ICV hypocretin-1 (orexin A) in hypocretin receptor-2 gene mutated narcoleptic dogs and IV hypocretin-1 replacement therapy in a hyp ||| ref 75 = [75]; PMID 10087007; 75. Kastin AJ Akerstrom V Orexin A but not orexin B rapidly enters brain from blood by simple diffusion J Pharmacol Exp Ther 1999 289 219 223 10087007; details: cited from earlier work
hOX2 [2] = target: T2, hOX2 (Homo sapiens, UniProt O43614); experiment: FLIPR Tetra calcium mobilization assay, PFSK-1 cells; format: cell-based; details: PFSK-1 cells innately expressing hOX2; 0.3 nM to 1 µM; two independent experiments in triplicates
T2 sequence (O43614 1-444): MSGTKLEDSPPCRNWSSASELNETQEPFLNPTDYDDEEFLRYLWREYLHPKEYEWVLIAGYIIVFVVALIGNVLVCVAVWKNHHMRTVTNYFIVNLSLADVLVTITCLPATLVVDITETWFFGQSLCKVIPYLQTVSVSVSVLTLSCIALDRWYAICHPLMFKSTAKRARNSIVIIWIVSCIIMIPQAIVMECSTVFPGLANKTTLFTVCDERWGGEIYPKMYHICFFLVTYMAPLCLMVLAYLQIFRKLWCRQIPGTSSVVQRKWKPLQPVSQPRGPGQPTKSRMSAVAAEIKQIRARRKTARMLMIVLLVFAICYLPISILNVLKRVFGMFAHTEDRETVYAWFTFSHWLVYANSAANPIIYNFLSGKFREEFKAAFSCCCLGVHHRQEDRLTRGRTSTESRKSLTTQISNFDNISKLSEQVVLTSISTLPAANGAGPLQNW
Experimental: as §1, §2, §3, §4

OX2 = details: in words; cited from earlier work
From the text: Among these, a family of neuroexcitatory peptides known as orexins (or hypocretins) is critically involved in regulating sleep and wakefulness, energy homeostasis, and reward. Orexin signaling is mediated by two closely related G protein-coupled receptors (GPCRs) – OX1 and OX2 (orexin) receptors – which are strongly conserved among mammals. While orexin cell bodies are concentrated in the hypothalamic area, orexin receptors are widely expressed in the central nervous system (CNS). Their endogenous ligands are two peptides, named ...

hOX2 [3] = target: T2, hOX2; experiment: Radioligand competitive binding assay ([3H]EMPA); parameters: expressed in transfected cells; membranes; details: control ligands; HEK-293-hOX2 membranes, [3H]EMPA 2 nM, 60 min rt, 10^-9 to 10^-6 M; two independent experiments in triplicates
From the text: The affinity towards OX2 was studied in a competitive radioligand binding assay on membranes derived from HEK-293 cells stably transfected with the human receptor. [^3H]EMPA, an OX2-selective orthosteric antagonist, was used as radioactive tracer to quantify residual binding after competitive displacement in the presence of the unlabeled ligands.^3 Wild-type OX-B and almorexant, a non-selective OX1 and OX2 antagonist, served as controls.^4
[^3H]EMPA (specific activity 27 Ci/mmol) and almorexant were synthesized at Janssen Research & Development LLC (San Diego, CA), while orexin-B was obtained from Bachem (Torrance, CA).
Cell membranes were prepared from a stable pool of HEK-293 cells transfected with the human OX2. Test compounds were dissolved in DMSO (10 mM stock solutions) and diluted in Dulbecco’s phosphate-buffered saline supplemented with 0.1% bovine serum albumin (BSA). Competition studies were performed by incubating the membranes with the OX2-selective antagonist [^3H]EMPA (2 nM) and different concentrations of the test compounds (7 concentrations ranging from 10^−9 to 10^−6 M). After a 60-minute incubation at rt, binding reactions were filtered to separate the excess of free ligand from the membranes. Filters were then counted for radioactivity in a scintillation counter. Nonspecific binding was determined in the presence of 10 µM almorexant.
Specific binding was determined and plotted as a function of the concentration of the compound using GraphPad Prism v8.3.1 (GraphPad Software, San Diego, USA). Data were analyzed by nonlinear regression using a one-site competition model.

[4] = parameters: method as in PMID 10087007; details: cited from earlier work

OX-B: endogenous orexin peptide, native ligand control, obtained from Bachem
occupation of OX1 orthosteric site versus [3H]SB-674042 (OX1 receptor): failed to occupy the receptor orthosteric site
increase in calcium release (agonist activity) (human OX1): increased calcium release in a concentration-dependent manner
metabolism [1]: readily metabolized
increase in calcium release (agonist activity) (hOX2 [2]): increased calcium release in a concentration-dependent manner
receptor selectivity (OX2): selective for OX2
inhibition of [3H]EMPA binding (hOX2 [3]): did not compete to bind to the receptor
lipophilicity relative to OX-A [4]: not as lipophilic
